Test results published in the nanobody polyreactivity screen of Harvey et al. (2022).

Assay: yeast display, Sf9 membrane polyspecificity reagent, FACS + sequencing; frameworks hold sequencing errors
Method in brief: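 In a synthetic yeast display library (Saccharomyces cerevisiae BJ5465), nanobody expression was induced with galactose for 36–48 hours. FACS gates were set low and high (top ~1%) using anti-HA fluorescence for expression and streptavidin fluorescence for binding of the Sf9 membrane reagent. Each polyreactivity label is drawn from the gate of origin.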

Sequence	polyreactivity (PSR sort gate)
QVQLVESGGGLVQAGGSLSLSCAATGSIITSNAMGWYRQAPGKERELVAAISWSGSRTFYADSVKGRFTISRDNEKNTVYLQMNSLKPEDTAVYYCAAGNRKWKMGYWGQGTQVTVSS	high polyreactivity
QVQLVESGGGLVQAGGSLSLSCAATGSTFWWYAMGWYRQAPGKEREFVAAIRWSSGSTYYADSVKGRFTISRDNAKNTVYLQMNSLKPEDTAVYYCATDDTSNVYVDLDYWGQGTQVTVSS	high polyreactivity
QVQLVESGGGLVQAGGSLSLSCAAYGITISIYSMGSYRQAPGKERELVAAINSGGTTYYADSVKGRFTISRDNAKNTVYLQMNSLKPEDTAVYYCADEYFAYPYEFYGGQGTQVTVSS	high polyreactivity
QVQLVESGGGLVQAGGSLSLSCADSGSNFGDYAMGWYRQAPGKERELFAAISFSDGSTYYADSVKGRFTISRDNANNTVYLQMNSLKPEDTAVYYCAKDAYWGYRWYTYDYWGQGTQVTVSS	low polyreactivity
QVQLVESGGGLVQAGGSLSLSCPASGRIFRWNAMGWYRQAPGKEREFVAAISWSGGSTYYADSVKGRFTISRDNAKNTVYLQMNSLKPEDTAVYYCNKVGYYGVGTSQEFDYWGQGTQVTVSS	high polyreactivity
QVQLVESGGGLVQAGGSLSLSWAASGSTFETNAMGWYRQAPGKERELVAVITRGGSTYSADSVKGRFTISRDNAKNTVFLQMNRLKPEDTAVYYCNTVKYVPINYIYAMDYWGQGTQVTVSS	low polyreactivity
QVQLVESGGGLVQAGGSLSLTCAASVLTLTGYPMGWYRPAPGKERELVAAISSRGGSTYYADSVKGRFTISRDNAKNTVYLQMNSLKREDTAFYYCDARASSGARGLDYWGQGTQVTVSS	high polyreactivity
QVQLVESGGGLVQAGGSRRLRCAASGSTFDVYAMGWYRQAPGKESELVAVINTSGTRTYYADSVKGRFTISRDNAKNTVYLQMNSLKPEDTAVYSCNAGGHLEMNYWGQGTQVTVSS	low polyreactivity
QVQLVESGGGLVQAGGSRRLSCAASGFFFDVNAMGWYRQAPGTEREWVATISKRGGTTYYADSVKGRFTISRDNAKNTVYLQMNSLKQEDTAVYYCAARHQSLRSYRYDYWGQGTQVTVSS	low polyreactivity
QVQLVESGGGLVQAGGSRRLSCAASGFIFTKYTMGWYRQAPGKERELVAAIRSDGVRTYYADSVKGRFTISRDNAKNTVYLQMNSLKPEDTAVYYCAARSLRYGRGMYYWGQGTQVTVSS	high polyreactivity
QVQLVESGGGLVQAGGSRRLSCAASGIIFAQYAMGWYRQAPGKERELVDSISGGGSTTNYADSVKGRFTISRDNAKNTVYLQMNSLKPEDTAVYYCAARTRRRGGIYDYWGQGTQVTVSS	high polyreactivity
QVQLVESGGGLVQAGGSRRLSCAASGIIFTRNSMGWYRQAPGKERELVAAISRSGGRTYYADSVKGRFTISRDNAKNTVYLQMNSLKPEDTAVYYCYPRDKNLQAYDYWGQGNQVTVSS	high polyreactivity
QVQLVESGGGLVQAGGSRRLSCAASGIIFYPNAMGWYRQAPGKERELVAAITSDGSTYYADSVKGRFTISRDNAKNTVYLQMNSLKPEDTAVYYCAAWDDYGYDYWGQGTQVTVSS	low polyreactivity
QVQLVESGGGLVQAGGSRRLSCAASGRSFTRYAMGWYRQAPGKERVLVAAITSSGRTYYADSVKGRFTISRDNAKNTVYLQMNRLKPEDTAVYYCAKYRANALNYANRGAGDYWGQGTQVTVSS	high polyreactivity
QVQLVESGGGLVQAGGSRRLSCAASGRTFRNYAMGWYRQAPGKERELVAAINFSGDGTYYADSVKGRFTISRDNAKNTVYLQMNSLKPEDTAVYYCAADVEYYRDVPQQVYVSDDYWGQGTQVTVSS	low polyreactivity
QVQLVESGGGLVQAGGSRRLSCAASGSIFDYYVMGWYRQAPVKERELVAAISWSGASTYSADSVKGRFTISRDNAKNTVYLQMNSLKPEDTAVYYCAADYGVNTLIDYDYWGQGTQVTVSS	low polyreactivity

Sequence	polyreactivity (PSR sort gate)
QVQLVESGGGLVQAGGSRRLSCAASGSIFVKYAMGWYRQAPGKERELVAAISQSGVRTYYADSVKGRFTISRDNAKNTVYLQMNSLKPEDTAVYYSAAYSGYYYWGQGTQVTVSS	high polyreactivity
QVQLVESGGGLVQAGGSRRLSCAASGSISGYNAMGWYRQAPGKERELVAVITTDGSTNYADSVKGRFTISRDNAKNTVYLQMNSLKPEDTAVYYCADYVVWLYGYEYWGQGTQVTVSS	low polyreactivity
QVQLVESGGGLVQAGGSRRLSCAASGSISNRYAMGWYRPAPGKEREFVARIRRRGGSTNYADSVKGRFTISRDNAKKTVYLQMNSLKPEDTAVYYCNAYPYQLDYDYWGQGTQVTVSS	high polyreactivity
QVQLVESGGGLVQAGGSRRLSCAASGSISVGFTMGWYRQAPGKEWEFVAVITGTGGRTRYADSVKGRFTISRDNAKNTVYLQMNSLKPEDTAVYYCAAKIRWRGALYDYWGQGSQVTVSS	high polyreactivity
QVQLVESGGGLVQAGGSRRLSCAASGSTFARYPMGWYRQAPGKERELVATITRGGSTNYADSVKGRFTISRDNAKNTVYLQMNSLKPEDTAVYYCNARCGRSPYGYGDYYWGQGTQVTVSS	high polyreactivity
QVQLVESGGGLVQAGGSRSLSCAASGRNFYYYTMGWYRQAPGKERELVAAISWGGVNTDYADSVKGRFTISRDNAKNTVYLQMNSLKPEDTAVYYCAAGRWSVGTYDYWGQGTQVTVSS	low polyreactivity
QVQLVESGGGLVQAGGSSRLSCAASGRTFDDYAMGWYRQAPATERELVAAISSRGGSTYYADSVKGRFTISRDNAKHTVYLQMNSLKPEDTAVYYSNTLQSSHGSSQYDSWGQGTQVTVSS	low polyreactivity
QVQLVESGGGLVQAGGSVRLSCAASGFISPSYAMGWYRQAPGKERELVAAITTSGGSTYYADSVKGRFTISRDNAKNTVYLQMNSLIPEDTAVYYCAAVGPDNSLYEPMDYWGQGTQVTVSS	low polyreactivity
QVQLVESGGGLVQAGGSVRLSCAASGFSFRLYVLGWYRQAPGTERELVAAISSLGGSTYYADSVKGRFTISRDNAKYTVDLQMNSLKPEDTAVYYCAADRPRGRETVDYWGHGTQVTVSS	high polyreactivity
QVQLVESGGGLVQAGGSVRLSCAASGNIFLRNAMGWYRQSPGKERELVAAIRRTGGSTYYADSVKGRFTISRDNAKTTVYLQMNSLKPEDTAVYYCAKRSYTGYEYWGQGTQVTVSS	low polyreactivity
QVQLVESGGGLVQAGGSVRLSCAASGRIFQPYAMGWYRQAPGKEREWVAAITRRAGSTYYADSVKGRFTISRDNALNTVYLQLNSLKPEDTAVSYCAARGLYWAYEMEYWGQGTQVTVSS	low polyreactivity
QVQLVESGGGLVQAGGSVRLSCAASGRILKVYPMGWYRQAPGKEWEFVAAISVNGGRTYYADSVKGRFTISRDNAKNTVYLQRQRLNPEDTAVYYCAKRLYKPGNVFYSVDQSDYWGQGTQVTVSS	low polyreactivity
QVQLVESGGGLVQAGGTHRLSCSASGFIFCKYAMGWYRQAPGKERELVAVITRSGSRTYYADSVKGRFTISRDNAKNTVYLQMNSLKPEDTAVYYCATENVYAYDYWGQGTQVTVSS	high polyreactivity
QVQLVESGGGLVQAGGTISLSCAASGRTYRNNAMGWYRQAPGKEMELVAAISRTGGRTYYADSVKGRFTISRDNAKNPVYLQMNSLKPEDSAVYYCNAAYLVREYDYWGQGTQVTVSS	high polyreactivity
QVQLVESGGGLVQAGGTLRLICAASGSTFGPYDMGWYRQAPGKERELVADITSGGSTYYADSVKGRFTISRDNAKNTVYLQMISLKPEDTAVYYCAADRVWPYYQYDYWGQGTQVTVSS	low polyreactivity
QVQLVESGGGLVQAGGTLRLSCAASGFIFAGYAMAWYRHAPGKERELVAASSWDGGSTYFADSVKGRFTISRDNAKHTVYLQMNSLIPEDTAGYYCAAKYFRHGPATYDYWGQGTQVTVSS	low polyreactivity
